Reference: publication doi:10.1101/2025.08.12.669882

Target: TG (triacylglycerol)
Assay: TG binding assay with purified proteins, TLC of radiolabeled TG
Conditions: 2.5 mol % TG; parent: est. 1.5; read off a plot

Substance: LDAC (m1 + m2) F57A; S61A; L105A; S109A
- response (relative to MBOAT7): 1.2
